Assay [1] concerns the target recombinant human methionine adenosyltransferase α2 (MATα2) (human) (UniProt P31153).
The target in assay [2] is recombinant methionine adenosyltransferase α1 (MATα1) (rat) (UniProt P13444).
recombinant methionine adenosyltransferase α1 (MATα1) (rat), sequence (P13444 whole entry): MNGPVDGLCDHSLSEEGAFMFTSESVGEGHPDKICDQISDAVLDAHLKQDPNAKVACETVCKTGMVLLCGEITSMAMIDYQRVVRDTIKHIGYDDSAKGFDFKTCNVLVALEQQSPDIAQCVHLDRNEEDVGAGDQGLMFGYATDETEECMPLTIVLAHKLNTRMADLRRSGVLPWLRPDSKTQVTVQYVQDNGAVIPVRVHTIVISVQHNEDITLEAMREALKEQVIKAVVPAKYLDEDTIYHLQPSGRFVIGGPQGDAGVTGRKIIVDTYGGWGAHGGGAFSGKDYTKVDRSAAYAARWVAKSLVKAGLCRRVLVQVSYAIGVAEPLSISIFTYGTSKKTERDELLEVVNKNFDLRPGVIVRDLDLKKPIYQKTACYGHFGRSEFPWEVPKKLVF

recombinant PDRG1 (tag excised), sequence (Q642A0 whole entry): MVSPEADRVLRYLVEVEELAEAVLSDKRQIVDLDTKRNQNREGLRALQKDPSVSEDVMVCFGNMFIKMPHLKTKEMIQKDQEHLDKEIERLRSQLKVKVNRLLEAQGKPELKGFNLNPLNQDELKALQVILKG
recombinant human methionine adenosyltransferase α2 (MATα2) (human), sequence (P31153 whole entry): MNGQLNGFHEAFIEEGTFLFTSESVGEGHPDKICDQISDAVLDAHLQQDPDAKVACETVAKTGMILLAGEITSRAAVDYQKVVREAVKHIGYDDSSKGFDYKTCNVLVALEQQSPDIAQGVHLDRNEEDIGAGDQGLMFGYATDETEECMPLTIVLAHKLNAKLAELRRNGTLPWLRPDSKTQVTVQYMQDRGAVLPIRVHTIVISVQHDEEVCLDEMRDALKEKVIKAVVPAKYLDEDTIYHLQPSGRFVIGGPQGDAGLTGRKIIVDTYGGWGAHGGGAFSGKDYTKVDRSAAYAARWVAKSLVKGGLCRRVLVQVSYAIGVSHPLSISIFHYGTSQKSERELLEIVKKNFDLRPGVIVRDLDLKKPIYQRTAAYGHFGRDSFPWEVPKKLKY

For the substance “recombinant PDRG1 (tag excised) (from UniProt Q642A0 1-133) (natural protein)”, in assay [1], the IC50 of PDRG1 on S-adenosylmethionine synthesis by purified recombinant MATα2 homo-oligomers (0.7 μM) was determined as 3.79 µM and the reduction in AdoMet synthesis by MATα2 homo-oligomers (0.7 μM) with increasing concentrations of PDRG1 was less than 50%. Besides, in assay [2], the IC50 of PDRG1 (0–5.6 μM) on S-adenosylmethionine synthesis by purified recombinant MATα1 homo-oligomers (0.7 μM) stood at 3.34 µM and the reduction in AdoMet synthesis by MATα1 homo-oligomers (0.7 μM) with increasing concentrations of PDRG1 (0–5.6 μM) was less than 50%.

The values are drawn from paper PMC4993455.
